From US20110039780A1 (Pfizer, published 2011) come the findings set out here.

Assay [1] concerns the target T1, α-thrombin (UniProt P00734 328-363; P00734 364-622). The assay is described as follows: Biacore assay. Here is the method: (§1) The binding abilities of GPIbα-290/2V-Ig and GPIbα-290-2V/FFF-Ig to vWF and a-thrombin were evaluated in vitro using a Biacore assay.
For assay [2], the target named is T2, intact von Willebrand factor (UniProt P04275 764-2813, limits assumed).
T2 construct: also called vWF; intact vWF
Description: SPR (BiaCore); fully sulfated isoform.

Assay [3] concerns the target T2, intact von Willebrand factor. Description: SPR (BiaCore); 6 sulfated (fully sulfated).
Assay [4] addresses T1, α-thrombin. The assay is described as follows: SPR (BiaCore).
Assay [5] has as its target T2, intact von Willebrand factor. The assay is described as follows: binding constant; method not stated in Example 3.
The target of assay [6] is T3, vWF A1 domain (UniProt P04275 1261-1468, limits assumed).
T3 construct: domain: A1; also called vWF A1 fragment
The assay is described as follows: binding constant; method not stated in Example 3.

The target in assay [7] is T2, intact von Willebrand factor. Description: SPR (BiaCore); 0 sulfated (unsulfated).
Assay [8] shares this target. The assay is described as follows: SPR (BiaCore); non-sulfated isoform.
Assay [9] deals with T3, vWF A1 domain. Description: Biacore assay. Here is the method: as §1
Assay [10] concerns the target T3, vWF A1 domain. Description: Biacore assay. This is another data set of the same source.

B1: GPIbα-IgG1Fc fusion protein with a wild-type human GPIbα sequence (Fc fusion)
chain: HPICEVSKVASHLEVNCDKRNLTALPPDLPKDTTILHLSENLLYTFSLATLMPYTRLTQLNLDRCELTKLQVDGTLPVLGTLDLSHNQLQSLPLLGQTLPALTVLDVSFNRLTSLPLGALRGLGELQELYLKGNELKTLPPGLLTPTPKLEKLSLANNNLTELPAGLLNGLENLDTLLLQENSLYTIPKGFFGSHLLPFAFLHGNPWLCNCEILYFRRWLQDNAENVYVWKQGVDVKAMTSNVASVQCDNSDKFPVYKYPGKGCPTLGDEGDTDLYDYYPEEDTEGDKVR
modifications: tyrosines 276, 278, 279 can be sulfated; sulfation state of the tested material not stated
notes: Made in CHO cells; dimerized forms were isolated; also called WT; GPIb-Ig WT; not shown: IgG1 Fc
B1 had a dissociation constant (Kd) with α-thrombin [1] of 0.76 µM.

B2: GPIbα-IgG1Fc fusion protein 2V (G233V M239V), fully sulfated isoform (Fc fusion)
chain: HPICEVSKVASHLEVNCDKRNLTALPPDLPKDTTILHLSENLLYTFSLATLMPYTRLTQLNLDRCELTKLQVDGTLPVLGTLDLSHNQLQSLPLLGQTLPALTVLDVSFNRLTSLPLGALRGLGELQELYLKGNELKTLPPGLLTPTPKLEKLSLANNNLTELPAGLLNGLENLDTLLLQENSLYTIPKGFFGSHLLPFAFLHGNPWLCNCEILYFRRWLQDNAENVYVWKQVVDVKAVTSNVASVQCDNSDKFPVYKYPGKGCPTLGDEGDTDLYDYYPEEDTEGDKVR
modifications: sulfotyrosine at 276, 278 and 279 (fully sulfated: sulfation state 6 per dimer)
notes: also called 2V 6 sulfated; GP Ib-Ig2V fully sulfated isoform; not shown: IgG1 Fc
For the molecule B2, the Kd is 0.004 µM in assay [2] and 0.0034 to 0.015 µM in assay [3]. Moreover, in the assay with α-thrombin [4], the “fold higher binding affinity than the unsulfated isoform” value was roughly 80 fold.

B3: GPIbα fusion protein variant 3V (G233V K237V M239V) (Fc fusion, not shown: large carriers)
chain: HPICEVSKVASHLEVNCDKRNLTALPPDLPKDTTILHLSENLLYTFSLATLMPYTRLTQLNLDRCELTKLQVDGTLPVLGTLDLSHNQLQSLPLLGQTLPALTVLDVSFNRLTSLPLGALRGLGELQELYLKGNELKTLPPGLLTPTPKLEKLSLANNNLTELPAGLLNGLENLDTLLLQENSLYTIPKGFFGSHLLPFAFLHGNPWLCNCEILYFRRWLQDNAENVYVWKQVVDVVAVTSNVASVQCDNSDKFPVYKYPGKGCPTLGDEGDTDLYDYYPEEDTEGDKVR
Regarding B3, the Ka in [5] amounted to 1.7e+09 M⁻¹; with vWF A1 domain [6] it was 1.5e+09 M⁻¹.

B4: GPIbα-IgG1Fc fusion protein with the M239V (1V) substitution (Fc fusion)
chain: HPICEVSKVASHLEVNCDKRNLTALPPDLPKDTTILHLSENLLYTFSLATLMPYTRLTQLNLDRCELTKLQVDGTLPVLGTLDLSHNQLQSLPLLGQTLPALTVLDVSFNRLTSLPLGALRGLGELQELYLKGNELKTLPPGLLTPTPKLEKLSLANNNLTELPAGLLNGLENLDTLLLQENSLYTIPKGFFGSHLLPFAFLHGNPWLCNCEILYFRRWLQDNAENVYVWKQGVDVKAVTSNVASVQCDNSDKFPVYKYPGKGCPTLGDEGDTDLYDYYPEEDTEGDKVR
modifications: tyrosines 276, 278, 279 can be sulfated; sulfation state not stated
notes: also called GP Ibα-Ig239V; not shown: IgG1 Fc
Turning to B4, in [5], the Ka was found to be 7.7e+07 M⁻¹.

B5: GPIbα-IgG1Fc fusion protein 1V (M239V), fully sulfated isoform (Fc fusion)
chain: HPICEVSKVASHLEVNCDKRNLTALPPDLPKDTTILHLSENLLYTFSLATLMPYTRLTQLNLDRCELTKLQVDGTLPVLGTLDLSHNQLQSLPLLGQTLPALTVLDVSFNRLTSLPLGALRGLGELQELYLKGNELKTLPPGLLTPTPKLEKLSLANNNLTELPAGLLNGLENLDTLLLQENSLYTIPKGFFGSHLLPFAFLHGNPWLCNCEILYFRRWLQDNAENVYVWKQGVDVKAVTSNVASVQCDNSDKFPVYKYPGKGCPTLGDEGDTDLYDYYPEEDTEGDKVR
modifications: sulfotyrosine at 276, 278 and 279 (fully sulfated: sulfation state 6 per dimer)
notes: also called 1V 6 sulfated; GP Ibα-Ig239V fully sulfated isoform; not shown: IgG1 Fc
In the case of B5, the Kd is 0.119 µM in assay [2] and 0.113 to 0.521 µM in assay [3]. The “fold higher binding affinity than the unsulfated isoform” value in the assay with α-thrombin [4] is roughly 80 fold.

B6: GPIbα-IgG1Fc fusion protein 1V (M239V), non-sulfated isoform (Fc fusion)
chain: HPICEVSKVASHLEVNCDKRNLTALPPDLPKDTTILHLSENLLYTFSLATLMPYTRLTQLNLDRCELTKLQVDGTLPVLGTLDLSHNQLQSLPLLGQTLPALTVLDVSFNRLTSLPLGALRGLGELQELYLKGNELKTLPPGLLTPTPKLEKLSLANNNLTELPAGLLNGLENLDTLLLQENSLYTIPKGFFGSHLLPFAFLHGNPWLCNCEILYFRRWLQDNAENVYVWKQGVDVKAVTSNVASVQCDNSDKFPVYKYPGKGCPTLGDEGDTDLYDYYPEEDTEGDKVR
modifications: tyrosines 276, 278, 279 not sulfated (sulfation state 0)
notes: also called 1V 0 sulfated; GP Ibα-Ig239V unsulfated isoform; not shown: IgG1 Fc
In the case of B6, the values for the Kd in assay [7] and in assay [8] were 0.113 to 0.521 µM and 0.284 µM, respectively.

B7: GPIbα fusion protein variant 3V/C65S (Fc fusion, not shown: large carriers)
chain: HPICEVSKVASHLEVNCDKRNLTALPPDLPKDTTILHLSENLLYTFSLATLMPYTRLTQLNLDRSELTKLQVDGTLPVLGTLDLSHNQLQSLPLLGQTLPALTVLDVSFNRLTSLPLGALRGLGELQELYLKGNELKTLPPGLLTPTPKLEKLSLANNNLTELPAGLLNGLENLDTLLLQENSLYTIPKGFFGSHLLPFAFLHGNPWLCNCEILYFRRWLQDNAENVYVWKQVVDVVAVTSNVASVQCDNSDKFPVYKYPGKGCPTLGDEGDTDLYDYYPEEDTEGDKVR
notes: also called 3V/C-S
For B7, the Ka in assay [5] is 1.7e+09 M⁻¹; with vWF A1 domain [6] it was 1.5e+09 M⁻¹.

B8: GPIbα-IgG1Fc fusion protein 2V (G233V M239V), non-sulfated isoform (Fc fusion)
chain: HPICEVSKVASHLEVNCDKRNLTALPPDLPKDTTILHLSENLLYTFSLATLMPYTRLTQLNLDRCELTKLQVDGTLPVLGTLDLSHNQLQSLPLLGQTLPALTVLDVSFNRLTSLPLGALRGLGELQELYLKGNELKTLPPGLLTPTPKLEKLSLANNNLTELPAGLLNGLENLDTLLLQENSLYTIPKGFFGSHLLPFAFLHGNPWLCNCEILYFRRWLQDNAENVYVWKQVVDVKAVTSNVASVQCDNSDKFPVYKYPGKGCPTLGDEGDTDLYDYYPEEDTEGDKVR
modifications: tyrosines 276, 278, 279 not sulfated (sulfation state 0)
notes: also called 2V 0 sulfated; GP Ib-Ig2V unsulfated isoform; not shown: IgG1 Fc
For B8, the results for the Kd in assay [7] and in assay [8] were 0.0034 to 0.015 µM and 0.012 µM, respectively.

B9: GPIb-290/2V/FFF-Ig (GPIb-290/2V-Ig with Tyr-276, 278, 279 changed to phenylalanine) (Fc fusion)
chain: HPICEVSKVASHLEVNCDKRNLTALPPDLPKDTTILHLSENLLYTFSLATLMPYTRLTQLNLDRCELTKLQVDGTLPVLGTLDLSHNQLQSLPLLGQTLPALTVLDVSFNRLTSLPLGALRGLGELQELYLKGNELKTLPPGLLTPTPKLEKLSLANNNLTELPAGLLNGLENLDTLLLQENSLYTIPKGFFGSHLLPFAFLHGNPWLCNCEILYFRRWLQDNAENVYVWKQVVDVKAVTSNVASVQCDNSDKFPVYKYPGKGCPTLGDEGDTDLFDFFPEEDTEGDKVR
notes: Non-sulfated chimera; also called GPIbα-290/2V/FFF-Ig; GPIbα-290-2V/FFF-Ig; not shown: human IgG1 Fc domain
In the case of B9, the Kd with α-thrombin [1] was 35.8 µM; with vWF A1 domain [9] it was 0.0154 µM. The “fold decrease in binding against GPIb-290/2V-Ig” value in the assay with vWF A1 domain [10] was roughly 3 fold. In addition, the Ka in assay [5] was 2.4e+08 M⁻¹; in the assay with vWF A1 domain [6], 9.1e+07 M⁻¹.

B10: GPIb-290/2V-Ig (N-terminal 290 amino acids of GPIbα with G233V M239V fused to a human IgG1 Fc domain) (Fc fusion)
chain: HPICEVSKVASHLEVNCDKRNLTALPPDLPKDTTILHLSENLLYTFSLATLMPYTRLTQLNLDRCELTKLQVDGTLPVLGTLDLSHNQLQSLPLLGQTLPALTVLDVSFNRLTSLPLGALRGLGELQELYLKGNELKTLPPGLLTPTPKLEKLSLANNNLTELPAGLLNGLENLDTLLLQENSLYTIPKGFFGSHLLPFAFLHGNPWLCNCEILYFRRWLQDNAENVYVWKQVVDVKAVTSNVASVQCDNSDKFPVYKYPGKGCPTLGDEGDTDLYDYYPEEDTEGDKVR
modifications: sulfated tyrosines at 276, 278, 279 (extent not stated)
notes: also called GPIb2V-Ig; GP Ib-Ig2V; not shown: human IgG1 Fc domain
B10: the values for the Kd in the assay with α-thrombin [1] and with vWF A1 domain [9] were 0.63 µM and 0.005 µM, respectively. Besides, the Ka is 5.6e+08 M⁻¹ in [5] and 1.9e+08 M⁻¹ in the assay with vWF A1 domain [6].
